This is an account of results in publication PMC4901202, “Sld3-MCM Interaction Facilitated by Dbf4-Dependent Kinase Defines an Essential Step in Eukaryotic DNA Replication Initiation” (Frontiers in Microbiology, 2016).

This experiment has as its target T1, 6His-Sld3 (budding yeast, UniProt P53135 1-668).
T1 construct: Sld3, budding yeast; Tag end read from the printed order 6His-SLD3; also called pET28a-SLD3; source: E. coli BL21 (DE3) CodonPlus RIL, purified (Ni2+ columns); not shown: 6His, N-terminal, kept
T1 sequence (looked up): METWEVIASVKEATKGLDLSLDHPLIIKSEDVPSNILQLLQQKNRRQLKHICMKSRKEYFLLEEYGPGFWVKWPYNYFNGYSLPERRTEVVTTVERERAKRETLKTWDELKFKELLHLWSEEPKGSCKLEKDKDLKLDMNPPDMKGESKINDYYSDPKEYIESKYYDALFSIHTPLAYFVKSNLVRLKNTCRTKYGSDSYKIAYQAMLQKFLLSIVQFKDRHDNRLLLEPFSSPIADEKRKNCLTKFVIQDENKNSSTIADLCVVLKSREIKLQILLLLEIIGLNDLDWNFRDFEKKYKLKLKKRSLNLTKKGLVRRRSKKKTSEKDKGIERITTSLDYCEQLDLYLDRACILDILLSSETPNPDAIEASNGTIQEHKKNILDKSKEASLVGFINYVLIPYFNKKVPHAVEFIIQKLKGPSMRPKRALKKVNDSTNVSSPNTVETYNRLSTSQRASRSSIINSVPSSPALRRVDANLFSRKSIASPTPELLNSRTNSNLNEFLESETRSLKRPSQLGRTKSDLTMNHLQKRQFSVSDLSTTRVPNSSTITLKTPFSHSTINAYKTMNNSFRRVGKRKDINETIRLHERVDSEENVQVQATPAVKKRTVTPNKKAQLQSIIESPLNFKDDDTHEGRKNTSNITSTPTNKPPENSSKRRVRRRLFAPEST
Nature of the experiment: pull-down; 2 μg 6His-Sld3 and 5 μg GST-Mcm6 or GST-Mcm2 with glutathione-Sepharose beads; 40 mM Tris-HCl pH 7.5, 100 mM NaCl, 0.1 mM EDTA, 10% glycerol, 0.1% Triton X-100, 1 mM DTT, 1 mg/ml BSA; 1 h at 4°C; immunoblots with anti-His and anti-GST. To be noted: both partners purified.

B1: GST-Mcm2N (1–390) (domain or fragment, budding yeast, UniProt P29469 1-390, looked up)
chain: MSDNRRRRREEDDSDSENELPPSSPQQHFRGGMNPVSSPIGSPDMINPEGDDNEVDDVPDIDEVEEQMNEVDLMDDNMYEDYAADHNRDRYDPDQVDDREQQELSLSERRRIDAQLNERDRLLRNVAYIDDEDEEQEGAAQLDEMGLPVQRRRRRRQYEDLENSDDDLLSDMDIDPLREELTLESLSNVKANSYSEWITQPNVSRTIARELKSFLLEYTDETGRSVYGARIRTLGEMNSESLEVNYRHLAESKAILALFLAKCPEEMLKIFDLVAMEATELHYPDYARIHSEIHVRISDFPTIYSLRELRESNLSSLVRVTGVVTRRTGVFPQLKYVKFNCLKCGSILGPFFQDSNEEIRISFCTNCKSKGPFRVNGEKTVYRNYQRVTL
notes: Mcm2, budding yeast, residues 1-390; Tag end read from the printed order GST-mcm2(1–390); also called GST-Mcm2 (1–390); pGEX-4T -1-mcm2(1–390); source: E. coli BL21 (DE3) CodonPlus RIL, purified as previously described (Quan et al., 2015); not shown: GST, N-terminal, kept
For the molecule B1, the binding result is “binds”.
